According to patent US20250129166A1 (Five Prime, published 2025):
Substitutions are numbered along the chain they refer to. Values belong to the binder of their own block, whether it stands above or below them.

What was measured:
[1] = target: T1, monovalent hVISTA-ECD (amino acids 32-193 of SEQ ID NO: 1 with a 7xHis tail) (human, UniProt Q9H7M9 33-193); experiment: SPR, mAb captured on Protein A, hVISTA-ECD analyte, 37 C, pH 6.0
T1 construct: also called huVISTA-His; human VISTA-ECD
Description: (§1) Binding kinetics were measured using a Biacore® T100 instrument (GE Healthcare). Protein A (ThermoFisher Scientific catalog #21181) was diluted to 20 μg/ml in 10 mM sodium acetate pH 4.5 and immobilized onto flow cells of a CM5 biosensor following the manufacturer's amine coupling protocol (GE Healthcare), targeting 2,000 RU immobilization density of Protein A per flow cell. The assay was conducted at 37° C. using PBST (137 mM sodium chloride, 2.7 mM potassium chloride, 10 mM phosphate buffer, 0.05% Tween 20) running buffer at pH 7.4, 6.7 and 6.0. Antibodies were diluted to 25 nM in PBST pH 7.4, and were captured across active biosensor flow cells at 5 ul/min for 40 seconds. A concentration series of 100-10 nM monovalent hVISTA-ECD (SEQ ID NO: 325) was prepared in pH 7.4, 6.7 and 6.0 running buffers, and was injected over the captured antibodies at 40 ul/min to measure association and dissociation. Two 15 second injections of 10 mM glycine pH 1.5 were used to regenerate the Protein A capture surface between assay cycles. Rate constants ka (kon) and kd (koff) were derived from reference flow cell and 0 nM blank-subtracted sensorgrams, and were fit to a 1:1 binding model in Biacore® T200 Evaluation Software v.2.0.
(§2) The affinity constant, KD was calculated as the ratio of rate constants koff/kₒₙ for each VISTA antibody. The % Rmax was calculated to compare how pH affects an antibody's binding capacity for VISTA, and represents the measured maximal VISTA binding response relative to the expected maximal VISTA binding response. The % Rmax is defined as the ratio of the reference-subtracted ‘binding’ report point response at the end of the 100 nM VISTA injection for each antibody (Rmax) relative to the expected VISTA binding response (Rexp). Rexp is calculated as Rexp=[(VISTA-ECD molecular weight/mAb molecular weight)×(mAb ‘capture’ report point response (RUs)]×2 binding sites per mAb.

[2] = target: T1, monovalent hVISTA-ECD (amino acids …); experiment: SPR, mAb captured on Protein A, hVISTA-ECD analyte, 37 C, pH 6.7
Description: as §1, §2

[3] = target: T1, monovalent hVISTA-ECD (amino acids …); experiment: SPR, mAb on Protein A, 37C, pH 6.0; pH 6.0
Description: (§3) Binding of several preparations of each of the '029 progeny clones and of the parent '029 antibodies, formatted as IgG1.3 antibodies, to human VISTA at pH 6.0 and 7.4 was measured by Surface plasmon resonance (SPR). SPR analysis was performed to measure koff and KD binding affinity measurements for VISTA Abs at acidic and neutral pHs using a Biacore® T100 instrument (GE Healthcare). Protein A (ThermoFisher Scientific catalog #21181) was diluted to 20 μg/ml in 10 mM sodium acetate pH 4.5 and immobilized onto flow cells of a CM5 biosensor following the manufacturer's amine coupling protocol (GE Healthcare), targeting 2,000 RU immobilization density of Protein A per flow cell. SPR experiments were conducted at 37° C. using PBST (137 mM sodium chloride, 2.7 mM potassium chloride, 10 mM phosphate buffer, 0.05% Tween® 20) running buffer at pH 7.4 and 6.0. Antibodies were diluted to 25 nM in PBST pH 7.4, and were captured across active biosensor flow cells at 5 ul/min for 60 seconds. A concentration series of 50-5 nM monovalent hVISTA-ECD (SEQ ID NO: 325) was prepared in pH 7.4 and 6.0 running buffers, and was injected over the captured antibodies at 40 ul/min to measure association and dissociation. Two 15 second injections of 10 mM glycine pH 1.5 were used to regenerate the Protein A capture surface between assay cycles. Rate constants ka (kₒₙ) and kd (koff) were derived from reference flow cell and 0 nM blank-subtracted sensorgrams, and were fit to a 1:1 binding model in Biacore® T200 Evaluation Software v.2.0. The affinity constant, KD was calculated as the ratio of rate constants koff/kₒₙ for each VISTA antibody.

[4] = target: T1, monovalent hVISTA-ECD (amino acids …); experiment: SPR, mAb on Protein A, 37C, pH 7.4
Description: as §3

[5] = target: T1, monovalent hVISTA-ECD (amino acids …); experiment: SPR, mAb on Protein A, 37C, pH 6.0
Description: as §3

T1 sequence (Q9H7M9 other isoform, or with tags, fused parts or gaps limits assumed): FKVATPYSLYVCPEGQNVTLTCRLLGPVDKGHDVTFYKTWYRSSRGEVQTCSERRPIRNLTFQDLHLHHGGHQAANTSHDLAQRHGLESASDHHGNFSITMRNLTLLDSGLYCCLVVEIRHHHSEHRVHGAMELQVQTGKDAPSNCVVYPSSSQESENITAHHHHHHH

B1: P1-068761_E30D (antibody, human IgG1, kappa, V domains shown)
VH: EVQLVESGGGLVQPGKSLRLSCAASGFTLDDEAMHWVRQAPGKGLEWVSGINWNSEEIGYADSVKGRFTISRDNAKNSLYLQMNSLRTEDTALYYCAKVPGYSHGWIDAEDVWGQGTMVTVSS
VL: not shown
notes: also called P1-070864
koff [1]: 0.0062 s⁻¹
koff [2]: 0.018 s⁻¹

B2: P1-071793 (P1-070916_HC_K16R_T84A, FW revertant) (antibody, V domains shown)
VH: B1 VH with K16R, D30E, E32Y, E56A, E57N, T88A, H104G, V112D
VL: not shown
notes: VH/VL only
Kd [3]: 8.1 nM
koff [3]: 0.0017 s⁻¹
kon [3]: 210000 M⁻¹ s⁻¹

B6: P1-072006 (P1-061029_Y32E) (antibody, human IgG1, kappa, V domains shown)
VH: B1 VH with E56A, E57N, H104G, E110F
VL: not shown
notes: also called P1-72006
Kd [4]: 540 nM
koff [4]: 0.0063 s⁻¹
kon [4]: 12000 M⁻¹ s⁻¹
Kd [5]: 3.5 nM
koff [5]: 0.0012 s⁻¹
kon [5]: 340000 M⁻¹ s⁻¹

B8: P1-068761_E56N (antibody, human IgG1, kappa, V domains shown)
VH: B1 VH with D30E, E57N
VL: not shown
notes: also called P1-070870
koff [1]: 0.0055 s⁻¹

B9: P1-070868 (P1-068761_E55A) IgG1.3 (antibody, V domains shown)
VH: B1 VH with D30E, E56A
VL: not shown
notes: IgG1.3
koff [1]: 0.0017 s⁻¹
koff [2]: 0.0064 s⁻¹
Kd [3]: 7 nM
koff [3]: 0.0018 s⁻¹
kon [3]: 260000 M⁻¹ s⁻¹

B12: P1-072004 (P1-061029_V102D) (antibody, human IgG1, kappa, V domains shown)
VH: B1 VH with E32Y, E56A, E57N, H104G, E110F, V112D
VL: not shown
notes: also called P1-72004
Kd [3]: 180 nM
koff [3]: 0.025 s⁻¹
kon [3]: 140000 M⁻¹ s⁻¹

B13: P1-071795 (P1-070916_HC_K16R, FW revertant) (antibody, V domains shown)
VH: B1 VH with K16R, D30E, E32Y, E56A, E57N, H104G, V112D
VL: not shown
notes: VH/VL only
Kd [3]: 8.1 nM
koff [3]: 0.0017 s⁻¹
kon [3]: 210000 M⁻¹ s⁻¹

Continued, values first:

Kd [3]: 7.7 nM
koff [3]: 0.0017 s⁻¹
kon [3]: 220000 M⁻¹ s⁻¹
B3: P1-071797 (P1-070916_HC_T84A, FW revertant) (antibody, V domains shown)
VH: B1 VH with D30E, E32Y, E56A, E57N, T88A, H104G, V112D
VL: not shown
notes: VH/VL only

Kd [3]: 11 nM
koff [3]: 0.0026 s⁻¹
kon [3]: 250000 M⁻¹ s⁻¹
B4: P1-071771 (P1-068767_HC_K16R, FW revertant) (antibody, V domains shown)
VH: B1 VH with K16R, D30E, E32Y, N52D, E57N, H104G, V112D
VL: not shown
notes: VH/VL only

Kd [4]: 190 nM
koff [4]: 0.0085 s⁻¹
kon [4]: 44000 M⁻¹ s⁻¹
Kd [5]: 2.5 nM
koff [5]: 0.0016 s⁻¹
kon [5]: 650000 M⁻¹ s⁻¹
B5: P1-072002 (P1-061029_F100fE) (antibody, human IgG1, kappa, V domains shown)
VH: B1 VH with E32Y, E56A, E57N, H104G
VL: not shown
notes: also called P1-72002

Kd [3]: 13 nM
koff [3]: 0.0026 s⁻¹
kon [3]: 210000 M⁻¹ s⁻¹
B7: P1-071789 (P1-070908_HC_K16R, FW revertant) (antibody, V domains shown)
VH: B1 VH with K16R, D30E, E32Y, N52D, E56A, E57N, H104G, V112D
VL: not shown
notes: VH/VL only

Kd [3]: 9.8 nM
koff [3]: 0.0026 s⁻¹
kon [3]: 270000 M⁻¹ s⁻¹
B10: P1-071773 (P1-068767_HC_T84A, FW revertant) (antibody, V domains shown)
VH: B1 VH with D30E, E32Y, N52D, E57N, T88A, H104G, V112D
VL: not shown
notes: VH/VL only

Kd [3]: 7 nM
koff [3]: 0.0018 s⁻¹
kon [3]: 260000 M⁻¹ s⁻¹
B11: P1-071779 (P1-070868_HC_T84A, FW revertant) (antibody, V domains shown)
VH: B1 VH with D30E, E56A, T88A
VL: not shown
notes: VH/VL only

Kd [3]: 7.6 nM
koff [3]: 0.0017 s⁻¹
kon [3]: 220000 M⁻¹ s⁻¹
B14: P1-071783 (P1-070906_HC_K16R, FW revertant) (antibody, V domains shown)
VH: B1 VH with K16R, D30E, E32Y, E57N, H104G, V112D
VL: not shown
notes: VH/VL only

Kd [3]: 5.1 nM
koff [3]: 0.0016 s⁻¹
kon [3]: 310000 M⁻¹ s⁻¹
B15: P1-071767 (P1-068761_HC_T84A, FW revertant) (antibody, V domains shown)
VH: B1 VH with D30E, T88A
VL: not shown
notes: VH/VL only

Kd [3]: 11 nM
koff [3]: 0.0026 s⁻¹
kon [3]: 240000 M⁻¹ s⁻¹
B16: P1-071769 (P1-068767_HC_K16R_T84A, FW revertant) (antibody, V domains shown)
VH: B1 VH with K16R, D30E, E32Y, N52D, E57N, T88A, H104G, V112D
VL: not shown
notes: VH/VL only
